Measurements published in patent publication US20090053745A1 (RUTGERS THE STATE UNIVERSITY OF NEW JERSEY, published 2009).

T1: cypin (endogenous, rat brain extract) (rat, UniProt Q9WTT6 1-454)
T1 sequence (looked up): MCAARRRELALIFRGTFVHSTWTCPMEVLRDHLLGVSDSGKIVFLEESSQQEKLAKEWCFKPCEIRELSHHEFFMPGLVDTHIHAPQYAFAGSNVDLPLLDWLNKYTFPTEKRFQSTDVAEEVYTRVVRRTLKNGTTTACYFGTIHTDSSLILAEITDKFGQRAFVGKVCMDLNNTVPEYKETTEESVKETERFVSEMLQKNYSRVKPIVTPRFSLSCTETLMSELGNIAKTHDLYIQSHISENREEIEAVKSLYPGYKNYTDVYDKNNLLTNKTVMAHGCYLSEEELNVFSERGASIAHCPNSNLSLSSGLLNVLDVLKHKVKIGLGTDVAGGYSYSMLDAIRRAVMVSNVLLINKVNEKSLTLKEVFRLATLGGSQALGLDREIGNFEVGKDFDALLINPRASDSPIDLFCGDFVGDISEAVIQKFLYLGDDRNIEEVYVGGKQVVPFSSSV

T2: GST-cypin (UniProt Q9WTT6 1-454)
T2 construct: Expressed in E. coli, purified on glutathione sepharose, eluted with glutathione and dialysed; No removal of GST is reported; also called purified cypin; not shown: glutathione S-transferase (GST) fusion partner
T2 sequence (looked up): T1 sequence (looked up)

B1: snapin (endogenous, rat brain extract) (other, UniProt P60192 2-136, looked up)
chain: AAAGSAAVSGAGTPVAGPTGRDLFAEGLLEFLRPAVQQLDSHVHAVRESQVELREQIDNLATELCRINEDQKVALDLDPYVKKLLNARRRVVLVNNILQNAQERLRRLNHSVAKETARRRAMLDSGVYPPGSPSK
notes: The smaller band may be a degradation product or a modified snapin
B2: GST-snapin (first 68 amino acids) (other)
chain: MAGAGSAAVSGAGTPVAGPTGRDLFAEGLLEFLRPAVQQLDSHVHAVRESQVELREQIDNLATELCRI
notes: also called snapin(1-68); N-terminal half of snapin; not shown: glutathione S-transferase (GST) fusion partner

Tests used:
[1] = molecular target: SNAP-25 (endogenous, rat brain extract) (rat, UniProt P60881 1-206); test: co-immunoprecipitation from rat brain extract with anti-snapin
Description: (§1) For co-immunoprecipitation studies, one rat brain was homogenized in 10 ml of TEE (25 mM Tris, 1 mM EGTA, 1 mM EDTA)+1 mM PMSF. Triton X-100 was added to a final concentration of 1% and proteins were extracted for 1 hour at 4° C. The extract was centrifuged at 12,000×g to remove insoluble material and the supernatant was incubated with either anti-cypin, anti-snapin, preimmune serum, rabbit IgG, anti-tubulin, or mouse IgG. Protein A beads were added and after a 1 hour incubation, the beads were washed with TEE+0.2% Triton X-100. Immunoprecipitated proteins were eluted with protein loading buffer and resolved by SDS-PAGE and transferred to PVDF membrane. Blots were probed with the indicated antibodies. Experiments were performed in duplicate or triplicate.

[2] = molecular target: PSD-95 (endogenous, rat brain extract) (rat, UniProt P31016 1-724, limits assumed); test: as above
Description: as §1

[3] = molecular target: T1, cypin (endogenous, rat brain extract); test: GST affinity chromatography with rat brain extract
Description: COS-7 cells were transfected with either pEGFP-C1-snapin, pDsRed-N1-snapin, pEGFP-C1-cypin or pDsRed-N1-cypin using Lipofectamine 2000 (Invitrogen, Carlsbad, Calif.) as described by manufacturer. Cells were washed with cold PBSE (phosphate buffered saline and 1 mM EDTA) and scraped into 5 mL of TEEN (25 mM Tris-HCl, pH 7.4, 1 mM EDTA, 1 mM EGTA, 100 mM NaCl). Cells were homogenized using a Potter-Elvehjem tissue grinder (20 strokes). Phenylmethylsulfonyl fluoride and DTT were added to lysates to final concentrations of 1 mM and cells were further lysed by passing the extract through a 25 gauge needle 5 times. Lysates were centrifuged at 12,000×g for 10 minutes at 4° C. Triton X-100 was added to the supernatant to a final concentration of 1% and incubated at 4° C. for 30 minutes. Lysates were centrifuged at 12,000×g for 10 minutes at 4° C. COS-7 cell lysates were incubated with glutathione-sepharose beads bound to 25 μg of the appropriate GST-fusion proteins for 1 hour at 4° C. Beads were washed three times with TEEN. Bound proteins were eluted with 0.5% SDS and 100 mM NaCl. Proteins were resolved on a 10% SDS polyacrylamide gel and transferred to PVDF membrane. Blots were probed with the indicated antibodies. For experiments using rat brain extracts, the extracts were prepared exactly as described above except that they were not passed through a 25 gauge needle. […]

[4] = molecular target: T2, GST-cypin; test: competition co-immunoprecipitation of purified cypin (2 µM) and tubulin heterodimers (7 µM); ligand to be displaced: tubulin heterodimers; strip labelled α-Tubulin on the sheet
Description: GST, GST-cypin, and GST-snapin were expressed in E. coli and purified using glutathione sepharose as previously described (Firestein et al., 1999). Purified proteins were eluted from the beads using glutathione and dialyzed against phosphate buffered saline. Purified cypin (2 μM) and the indicated concentrations of purified snapin were mixed with tubulin heterodimers (7 μM) in PEM buffer (80 mM PIPES, pH 6.9, 2 mM MgCl₂, 0.5 mM EGTA) containing 5% glycerol for 4-6 hours at 4° C. The mixtures were subjected to immunoprecipitation using a monoclonal antibody raised against tubulin. Binding of purified proteins was assayed by SDS-PAGE followed by Western blotting using a rabbit polyclonal antibody raised against cypin (Akum et al., 2004).
Since snapin binds to cypin's CRMP homology domain, which is responsible for binding tubulin heterodimers (Akum et al., 2004), it is possible that snapin could compete tubulin binding to cypin. To address this question, co-immunoprecipitation of purified cypin and tubulin heterodimers in the presence of full-length snapin or the N-terminal half of snapin (amino acids 1-68) was performed. No association of snapin with tubulin heterodimers by co-immunoprecipitation or affinity chromatography was found in the previous experiments (data not shown). […]

PSD-95 (endogenous, rat brain extract), sequence (P31016 whole entry): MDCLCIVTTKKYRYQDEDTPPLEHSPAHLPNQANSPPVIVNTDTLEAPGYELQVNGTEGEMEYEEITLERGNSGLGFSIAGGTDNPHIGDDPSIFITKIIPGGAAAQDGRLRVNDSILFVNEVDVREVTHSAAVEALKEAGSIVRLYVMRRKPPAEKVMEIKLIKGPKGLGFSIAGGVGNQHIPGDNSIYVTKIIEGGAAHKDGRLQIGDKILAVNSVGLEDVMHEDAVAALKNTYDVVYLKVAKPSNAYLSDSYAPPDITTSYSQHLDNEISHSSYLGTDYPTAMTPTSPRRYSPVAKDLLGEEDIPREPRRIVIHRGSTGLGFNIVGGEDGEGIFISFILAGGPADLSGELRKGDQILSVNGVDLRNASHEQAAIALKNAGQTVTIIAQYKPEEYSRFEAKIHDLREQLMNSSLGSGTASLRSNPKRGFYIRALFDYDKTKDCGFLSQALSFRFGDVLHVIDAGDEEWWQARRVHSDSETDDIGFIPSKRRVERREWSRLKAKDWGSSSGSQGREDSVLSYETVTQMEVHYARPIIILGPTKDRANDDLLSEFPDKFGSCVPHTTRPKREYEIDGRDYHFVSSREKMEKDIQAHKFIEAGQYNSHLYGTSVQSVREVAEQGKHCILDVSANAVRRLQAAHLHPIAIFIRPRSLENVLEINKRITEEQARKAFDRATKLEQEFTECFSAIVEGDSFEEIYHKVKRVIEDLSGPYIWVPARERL
SNAP-25 (endogenous, rat brain extract), sequence (P60881 whole entry): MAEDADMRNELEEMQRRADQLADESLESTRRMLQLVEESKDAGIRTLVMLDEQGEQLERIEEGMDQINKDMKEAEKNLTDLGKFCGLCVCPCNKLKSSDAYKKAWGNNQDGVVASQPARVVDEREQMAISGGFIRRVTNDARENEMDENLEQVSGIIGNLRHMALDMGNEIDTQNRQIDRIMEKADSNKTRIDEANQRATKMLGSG

| Binder | binding result [1] | binding result [2] | binding result [3] | binding result [4] |
| --- | --- | --- | --- | --- |
| B1 | no binding | no binding |  |  |
| B2 |  |  | no binding | no binding (tested: 4 µM) |
